Molecular target: T1, 14-3-3 υ protein, recombinant (A. thaliana, UniProt P42645 1-268)
T1 construct: 14-3-3 υ, A. thaliana, AT5G16050; construct and tags not described
T1 sequence (looked up): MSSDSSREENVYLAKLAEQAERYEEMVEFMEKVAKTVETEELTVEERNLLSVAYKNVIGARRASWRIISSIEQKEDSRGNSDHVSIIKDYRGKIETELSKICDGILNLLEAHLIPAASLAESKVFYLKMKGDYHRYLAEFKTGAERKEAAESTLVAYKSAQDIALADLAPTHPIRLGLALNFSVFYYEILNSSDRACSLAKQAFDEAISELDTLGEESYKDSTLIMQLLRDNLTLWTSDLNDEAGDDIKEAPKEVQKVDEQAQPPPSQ
Assay: far-Western, overlay or dot blot; dilution series of recombinant 14-3-3 υ spotted on nitrocellulose; incubated with PRX-IIE or its phospho-mimicry variants in TBS with either 1 mM DTT or 100 µM H2O2 overnight at 4 °C; detected with anti-PRX-IIE antibody; spots quantified with ImageJ
Settings: both partners purified

fold improvement of binding under oxidizing conditions (100 µM H2O2) against the other conditions: 2.5 fold
B1: Peroxiredoxin IIE (PRX-IIE), wild type, His6-tagged recombinant (enzyme, A. thaliana, UniProt Q949U7 71-234, looked up)
chain: ASISVGDKLPDSTLSYLDPSTGDVKTVTVSSLTAGKKTILFAVPGAFTPTCSQKHVPGFVSKAGELRSKGIDVIACISVNDAFVMEAWRKDLGINDEVMLLSDGNGEFTGKLGVELDLRDKPVGLGVRSRRYAILADDGVVKVLNLEEGGAFTNSSAEDMLKAL
notes: Peroxiredoxin IIE, A. thaliana, AT3G52960, cloned into pET28a (NdeI/BamHI); also called PRX-IIE WT; WT PRX-IIE; source: E. coli BL21 (DE3)pLysS, purified (Ni-NTA, dialysis)

Reference: PMC7909837, “Function and Regulation of Chloroplast Peroxiredoxin IIE” (Antioxidants, 2021)
